Data as given in US20220315908A1, “NOVEL GARDNERELLA ENDOLYSINS AND USES THEREOF” (priority 2019, published 2022).

Key:
[1] = system: G. vaginalis sensu stricto strain Gv_9; assay: Quantitative reduction in viable CFU assay in bacterial suspension; assay type: cell-based, Gardnerella vaginalis sensu stricto; details: Gv_9; 5 hours, pH 5.0, anaerobic; 10 ul endolysin (0.2 mg/ml where possible) + 90 ul 5e7 CFU/ml; average of triplicate
Protocol: The lysis activity on the four main species of Gardnerella of 91 constructs (natural and domain-swapped endolysins) was quantitatively assessed using the method described in Reference Example 2. […]
(§1) The results are shown in FIGS. 8A to 8D together with Tables 5A to 5C. In FIGS. 8A to 8D, the logarithmic Y axis depicts the count of surviving cells. The dotted line indicates the limit of detection (LOD) given by plating of 2 ul of the reaction mix (500 CFU/ml). Each combination of the natural 10 H-domains and the natural 9 B-regions was assessed, including the natural endolysins (H1B1, H2B2, H3B3, etc.), plus H6B6. […] The activity of each construct was measured on each of the 4 main Gardnerella species G. vaginalis sensu stricto, G. leopoldii, G. piotii, and G. swidsinkii. All conditions have been measured in triplicate. The survival after 5 hours incubation at pH 5.0 under anaerobic conditions with endolysins vs. buffer was measured by quantitative plating. The values indicate the log 10 of the ratio of surviving CFU for treated vs. untreated cells. The average of the triplicate measurements is used. In tables 5A and 5B, high negative log 10 values, e.g. −6.7, −5.5, −4.8 etc. are associated with high enzymatic activity, while log 10 values closer to zero or even positive log 10 values are associated with low or no enzymatic activity. […] Inversely, a reduction value of −3.7 means a 10^3.7-fold (=5012-fold) reduction of viable CFU in treated sample vs. untreated control.
(§2) Gardnerella cells were recovered from cryo stock by plating on Chocolate Agar plates (Beckton Dickinson) and incubating for 48 h at 37° C. under anaerobic conditions. For Lactobacilli, BD Schaedler/5% sheep blood agar plates were used instead. Colonies were scraped from the plate, resuspended in Hardy Broth or NYC-III-HS-5.0 at the pH as indicated, and the suspension adjusted to OD (610 or 620 nm as indicated) 0.1. It has to be noted that two Tecan Microplate readers, having respectively a 610 nm or 620 nm filter, have been used interchangeably in the experiments. Although it doesn't make any difference for the experiments, the exact wavelength used is specified in each example. If not stated otherwise, 90 μl cell suspension was mixed with 10 μl endolysin solution, for the different species/endolysin combinations, in 384-well plates. OD(610-620 nm as indicated) was measured at the beginning of the reaction and at the end, either as two measurement points or as a continuous kinetic in a Tecan F200 Microplate reader. The reactions were incubated for 5 hours (or otherwise the time indicated) at 37° C. under anaerobic, micro-aerophilic or aerobic conditions as indicated. Anaerobic conditions intend that oxygen was fully depleted from the container in which the bacteria are incubated (Sigma-Aldrich anaerobic jar or sealable lunch box) with an anaerobic sachet, and the lack of oxygen was confirmed with an anaerobic indicator inside the container. Where micro-aerophilic conditions are indicated, the candle-in-a-jar method was used (tea candle lit in an appropriate sealable container, which reduces oxygen levels until the flame dies out). Then each well was diluted in 5 steps (10^−1 to 10^−5) using 96-U-well bottom plates, and 2 μl of each dilution of each reaction mix are plated on BD Chocolate agar plates or BD Schaedler/5% sheep blood agar plates for Gardnerella and Lactobacilli, respectively, for detecting and quantifying surviving CFU. Detection plates were incubated at 37° C. for 48 hours under anaerobic conditions.

[2] = system: four Gardnerella strains (Gv_9, Gv_11, Gv_17, Gv_23); assay: CFU reduction averaged across the four Gardnerella strains, with activity ranks; assay type: cell-based; details: for average of the log 10 activities of each construct across the four Gardnerella strains: pH 5.0, 5 hours, anaerobic; for activity rank of all endolysins: rank 1-91, based on the data of Table 5B
Protocol: (§3) The lysis activity on the four main species of Gardnerella of 91 constructs (natural and domain-swapped endolysins) was quantitatively assessed using the method described in Reference Example 2. Briefly, 90 ul 5e7 CFU/ml of the indicated strain were incubated for 5 hours at pH 5.0 under anaerobic conditions with 10 ul endolysin (concentration adjusted to 0.2 mg/ml where possible, see Table 4).
as §1
as §2, with “out).” for “out). Then each well was diluted in 5 steps (10^−1 to 10^−5) using 96-U-well bottom plates, and 2 μl of each dilution of each reaction mix are plated on BD Chocolate agar plates or BD Schaedler/5% sheep blood agar plates for Gardnerella and Lactobacilli, respectively, for detecting and quantifying surviving CFU. Detection plates were incubated at 37° C. for 48 hours under anaerobic conditions.”

[3] = system: G. swidsinskii strain Gv_23; assay: Quantitative reduction in viable CFU assay in bacterial suspension; assay type: cell-based, Gardnerella swidsinskii; details: 5 hours, pH 5.0, anaerobic, 10 ul endolysin (0.2 mg/ml where possible) + 90 ul 5e7 CFU/ml, average of triplicate
Protocol: as §3, §1, §2

B1: H4B4: natural Gardnerella prophage endolysin from strain Gv5-1 (protein)
chain: MSKKGIDVSEWQGDIDFNAVKASGVEFVIIRAGYGIGCKDKWFEQNYRKAKTCGLDVGAYWYSYANSGFEAAEEAQSCVNMLSGKSFEYPVYFDLEEKSQLNRGRAFCDSLITSFCSKLETYGYYAGFYTSLSVVNNLVSAHVRDRYALWIAQWNTHCSYQGSYGLWQYSSSGSVPGVAGRVDMDYAYVDYPSIIKNVGLNGCKNGGSDQATRTSSIDEVAREVINGAWGNGNERKQRLTSAGYDYASVQNKVNKLLGVKAYRKSVDELAREVIRGTWGNGNERKQRLAQAGYDYDTVQKRVNELL
modifications: EL4_strain_Gv5-1
log 10 of the ratio of surviving CFU for treated vs. untreated cells [1]: −0.4 log 10 | average of the log 10 activities of each construct across the four Gardnerella strains [2]: −0.8 log 10 | activity rank of all endolysins [2]: 76 | log 10 of the ratio of surviving CFU for treated vs. untreated cells [3]: −2.0 log 10

B2: H1B1: natural Gardnerella prophage endolysin from strain HMP9231 (protein)
chain: MSKKGIDVSEWQGDIDFNAVKASGVEFVIIRAGYGIGCKDKWFEQNYRKAKTAGLDVGAYWYSYANSGFEAAEEAQSLMNMLSGKSFEYPVYFDLEEKSQLNRGRAFCDSLITSFCNKLEACGYYAGFYTSLSTANNLVSAHVRNRYALWIAQWNTHCNYQGSYGLWQYSSNGSVPGVAGRVDMDYAYVDYPSIIKNAGLNGCKNGGSDQAARTSSIDEVAREVINGAWGNGSTRKQRLTSAGYDYASVQNKVNELLGVKACRKSVDELAREVIRGAWGNGSTRKQRLAQAGYDYDTVQKRVNELL
modifications: EL1_strain_HMP9231
notes: natural Gardnerella prophage endolysin from strain HMP9231
log 10 of the ratio of surviving CFU for treated vs. untreated cells [1]: −1.9 log 10 | average of the log 10 activities of each construct across the four Gardnerella strains [2]: −1.9 log 10 | activity rank of all endolysins [2]: 44 | log 10 of the ratio of surviving CFU for treated vs. untreated cells [3]: −3.5 log 10

B3: H10B10: natural Gardnerella prophage endolysin from strain G30-4 (protein)
chain: MSKRGIDVSVWQGDIDFNAVKASGVEFVIIRAGYGIGHKDKWFEENYRKAKTVGLDVGAYWYSYASSAGEASEEAQSCVNILSGKSFEYPVYFDLEEKSQLNRGRDFCDSLITSFCNKLEACGYYAGFYTSLSVANNLVSSHVRDRYALWIAQWNTHCSYQGSYGLWQYSSSGSVNGIAGRVDMDYAYVDYPSVIKNAGLNGYKNGGSYTAPQISSIDEVAREVINGDWGNGNERKQRLTSAGYDYASVQNKVNELLGVKAYRKSVDELAREVIRGTWGNGSTRKQRLTQAGYDYNAVQKRVNELL
modifications: EL10_strain_G30-4
log 10 of the ratio of surviving CFU for treated vs. untreated cells [1]: −3.5 log 10 | average of the log 10 activities of each construct across the four Gardnerella strains [2]: −3.3 log 10 | activity rank of all endolysins [2]: 6 | log 10 of the ratio of surviving CFU for treated vs. untreated cells [3]: −5.5 log 10

B4: H2B2: natural Gardnerella prophage endolysin from strain Gv18-4 (protein)
chain: MSKRGIDVSEWQGDIDFNAVKASGVEFVIIRAGYGIGCKDKWFEQNYRKAKTCGLDVGAYWYSYANSGFEAAEEAQSCVNMLSGKSFEYPVYFDLEEKSQLNRGRAFCDSLITGFCNKLESCGYYAGFYTSLSTANNLVSAHVRNRYALWIAQWNTHCSYQGSYGLWQYSSSGSVPGVAGRVDMDYAYVDYPSIIKNVGLNGCKNGGSDQAARTSSIDEVAREVINGAWGNGNERKQRLTSAGYDYASVQNKVNELLGVKACRKSVDEIAREVIRGTWGNGSTRKQRLTQAGYDYDTVQKRVNELL
modifications: EL2_strain_Gv18-4
log 10 of the ratio of surviving CFU for treated vs. untreated cells [1]: −1.2 log 10 | average of the log 10 activities of each construct across the four Gardnerella strains [2]: −2.6 log 10 | activity rank of all endolysins [2]: 25 | log 10 of the ratio of surviving CFU for treated vs. untreated cells [3]: −5.4 log 10

B5: H5B5: natural Gardnerella prophage endolysin from strain JCP7276 (protein)
chain: MSKKGIDVSEWQGDIDFNAVKASGVEFVIIRAGYGIGCKDKWFEQNYRKAKTAGLDVGAYWYSYANSSSEAAEEAQSCANMLSGKSFEYPVYFDLEEKSQLNRGRAFCDSLITGFCSKLEACGYYAGFYTSLSTANNLVSAHVRNRYALWIAQWNTHCSYQGSYGLWQYSSNGSVPGVAGRVDMDYAYKDYPSIIKNAGLNGCKNGGSDQAARTSSIDEVAREVINGAWGNGNERKQRLTQAGYDYTSVQNKVNKLLGVKACRKSVDELAREVIRGTWGNGNERKNRLTQAGYDYDTVQKRVNELL
modifications: EL5_strain_JCP7276
notes: natural Gardnerella prophage endolysin from strain JCP7276
log 10 of the ratio of surviving CFU for treated vs. untreated cells [1]: 0.2 log 10 | average of the log 10 activities of each construct across the four Gardnerella strains [2]: 0.1 log 10 | activity rank of all endolysins [2]: 87 | log 10 of the ratio of surviving CFU for treated vs. untreated cells [3]: −0.1 log 10

B6: H7B7: natural Gardnerella prophage endolysin from strain AMD (protein)
chain: MSKKGIDVSEWQGDIDFNAVKASGVEFVIIRAGYGIGCKDKWFEQNYRKAKTAGLDVGAYWYSYANSASEAAEEAQSCANMLSGKSFEYPVYFDLEEKSQLNRGRAFCDSLITSFCSKLETYGYYAGFYTSLSTANNLVSSHVRNRYALWIAQWNTHCSYQGSYGLWQYSSSGSVPGVAGRVDMDYAYKDYPSIIKNAGLNGCKNGGSDQAARTSSIDEVAREVINGAWGNGNERKQRLTQAGYDYTSVQNKVNKLLGVKACRKSVDELAREVIRGTWGNGNERKNRLTQAGYDYDTVQKRVNELL
modifications: EL7_strain_AMD
notes: natural Gardnerella prophage endolysin from strain AMD
log 10 of the ratio of surviving CFU for treated vs. untreated cells [1]: −1.6 log 10 | average of the log 10 activities of each construct across the four Gardnerella strains [2]: −2.0 log 10 | activity rank of all endolysins [2]: 40 | log 10 of the ratio of surviving CFU for treated vs. untreated cells [3]: −3.2 log 10

B7: H3B3: natural Gardnerella prophage endolysin from strain Gv18-4 (protein)
chain: MSKKGIDVSVWQGDIDFNSVKASGVEFVIIRAGYGIGHKDKWFEENYRKAKTAGLDVGSYWYSYASSAGEASEEAQSCVNILSGKSFEYPIYFDLEEKSQLNRGRDFCDSLITSFCNKLEACGYYAGFYTSLSVANNLVSSHVRDRYALWIAQWNTHCSYQGSYGLWQYSSSGSVNGIAGRVDMDYAYVDYPSVIKNAGLNGYQNGGSYTAPQTSSIDEVAREVINGDWGNGNDRKNRLISAGYDYASVQNKVNELLGVKAYRKSVDELAREVIRGTWGNGSMRKHRLTQAGYDYDAVQKRVNELL
modifications: EL3_strain_Gv18-4
log 10 of the ratio of surviving CFU for treated vs. untreated cells [1]: −3.0 log 10 | average of the log 10 activities of each construct across the four Gardnerella strains [2]: −3.0 log 10 | activity rank of all endolysins [2]: 13 | log 10 of the ratio of surviving CFU for treated vs. untreated cells [3]: −5.4 log 10
